Experimental data from US20240376218A1.

Experiments:
[1] = molecular target: human CCR8 tagged with ProLink (human); assay: cell-based or functional assay
human CCR8 (human) = human CCR8 (human) (UniProt P51685); assay: cell-based or functional assay
[2] = molecular target: cynomolgus CCR8 (cynomolgus); assay: FACS, CHO cells expressing cynomolgus CCR8, signal at saturation
Chain of cynomolgus CCR8 (cynomolgus) (O97665 other isoform, or with tags, fused parts or gaps): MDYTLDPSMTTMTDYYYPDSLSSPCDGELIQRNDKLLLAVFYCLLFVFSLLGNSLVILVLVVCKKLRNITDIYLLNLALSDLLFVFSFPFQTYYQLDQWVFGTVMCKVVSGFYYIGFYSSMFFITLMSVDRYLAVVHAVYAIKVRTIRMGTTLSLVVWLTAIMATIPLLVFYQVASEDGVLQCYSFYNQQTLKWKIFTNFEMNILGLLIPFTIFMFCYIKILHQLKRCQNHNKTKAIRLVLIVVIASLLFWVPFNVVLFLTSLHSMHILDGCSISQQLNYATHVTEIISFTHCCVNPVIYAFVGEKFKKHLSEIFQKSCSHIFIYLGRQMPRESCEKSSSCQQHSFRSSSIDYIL

IC50 in nM for inhibition of CCL1 induced β-arrestin signaling (DiscoverX assay), CHO with hCCR8 [1] [nM]	Ca flux assay IC50 (nM), block of signaling induced by CCL1 at 60 ng/ml; CHO cells expressing human CCR8 (human CCR8 (human)) [nM]	Ca flux assay Span ratio (from max to min), block of signaling induced by CCL1 at 60 ng/ml; CHO cells expressing human CCR8 (human CCR8 (human))	Internalization [fold isotype], HuT78 cells, BODIPY FL-labelled antibody (human CCR8 (human)) [fold isotype]	MFI [2]	Binder
0.78	1.3	996	22		433H (antibody, from another filing, V domains shown) VH: EVQLVETGGGLVQPKGSLRLSCAASGFPFNTFAMNWVRQAPGKGLEWLARIRSKSNNYATYYADSVKDRFTISRDDSRRMLYLLMNNVKFEDTAIYYCVRGKENNYGYAMDYWGQGTSVTVSS VL: DIVMTQAAPSVPVTPGESVSISCRSSQSLLHSNGNTYLYWFLQRPGQSPQLLIYRMSNLASGVPDRFSGSGSGTAFTLRISRVEAEDVGVYYCMQHLEYPFTFGIGTKLELKR
				< 1000	Clone 433H (ICOS, BD) (antibody, from another filing, V domains shown) VH: EVQLVETGGGLVQPKGSLRLSCAASGFPFNTFAMNWVRQAPGKGLEWLARIRSKSNNYATYYADSVKDRFTISRDDSRRMLYLLMNNVKFEDTAIYYCVRGKENNYGYAMDYWGQGTSVTVSS VL: DIVMTQAAPSVPVTPGESVSISCRSSQSLLHSNGNTYLYWFLQRPGQSPQLLIYRMSNLASGVPDRFSGSGSGTAFTLRISRVEAEDVGVYYCMQHLEYPFTFGIGTKLELKR
